According to article PMC2791859:

What was measured:
[1] = target: FcγRIa, recombinant extracellular domain (UniProt P12314); experiment: SPR; Biacore 3000; extracellular domain of FcγRIa immobilized covalently or through enzymatic, site-directed biotinylation; antibody as analyte; kinetic analysis at pH 7.4
[2] = target: FcRn, recombinant extracellular domain (UniProt P55899); experiment: SPR; Biacore 3000; extracellular domain of FcRn immobilized covalently or through enzymatic, site-directed biotinylation; antibody as analyte; steady-state analysis at pH 6.0
Sequence of UniProt P55899 (P55899 whole entry, looked up, the tested form may be a part): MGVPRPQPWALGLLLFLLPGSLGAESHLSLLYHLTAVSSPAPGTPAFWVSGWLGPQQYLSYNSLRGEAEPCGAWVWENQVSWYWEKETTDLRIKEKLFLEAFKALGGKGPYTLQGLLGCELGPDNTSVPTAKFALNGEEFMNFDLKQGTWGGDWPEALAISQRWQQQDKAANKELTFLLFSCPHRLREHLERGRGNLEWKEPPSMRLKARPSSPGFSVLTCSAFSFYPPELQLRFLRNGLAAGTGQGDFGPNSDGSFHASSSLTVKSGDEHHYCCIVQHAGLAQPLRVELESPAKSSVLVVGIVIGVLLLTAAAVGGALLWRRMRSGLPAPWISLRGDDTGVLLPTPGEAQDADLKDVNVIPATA

Sequence of UniProt P12314 (P12314 16-292): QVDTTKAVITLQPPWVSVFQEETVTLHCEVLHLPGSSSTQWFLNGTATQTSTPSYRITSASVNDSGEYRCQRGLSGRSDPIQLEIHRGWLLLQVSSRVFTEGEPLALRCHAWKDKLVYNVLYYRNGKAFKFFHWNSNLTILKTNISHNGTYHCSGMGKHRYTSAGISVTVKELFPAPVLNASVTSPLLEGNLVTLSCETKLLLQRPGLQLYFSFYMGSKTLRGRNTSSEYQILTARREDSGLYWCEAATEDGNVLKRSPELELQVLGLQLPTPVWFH

Kd [1]: 74 nM
koff [1]: 0.0021 s⁻¹
kon [1]: 29000 M⁻¹ s⁻¹
Kd [2]: 2700 nM
Substance: human IgG1 antibody Variant FS (F241S F243S)
